The series is described as follows: yeast display, Sf9 membrane polyspecificity reagent, FACS + sequencing; frameworks hold sequencing errors. In outline:
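Genes from sorted yeast were amplified by colony PCR, read by MiSeq 2 × 250 sequencing and filtered on CDR length. These cells carried a synthetic nanobody library in Saccharomyces cerevisiae BJ5465 and were sorted by FACS into low and high (top ~1%) gates on anti-HA and streptavidin fluorescence. Polyreactivity is labelled according to the gate of origin.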
In the case of “QVQLVESGGGLVQTGGSLRLSCAASGLTLYVYAMGWYRQAPGKERELVASITSGGSTNYADSVKGRFTISRDNAKNTVYLQMNSLKPEDTAVYYCAAETDTVYDWIAPYVTYDYWGQGTQVTVSS”, the “polyreactivity (PSR sort gate)” value is “low polyreactivity”.
For “QVQLVESGVGLVQAGGSLRLSCAASGSTFAKYAMGWYRQAPGKERELVASIRLSGGSTYYADSVKGRFTISRDNAKNTVYLQMNSLKPEDTAVYYCAADVIVFYYAPNYWGDIEYGYWGQGTQVTVSS”, the “polyreactivity (PSR sort gate)” value was “low polyreactivity”.
As for “QVQLVESGGGLVQAGGSLRLSCAASGRTFKRYAMGWYRQAPGKERELVAAITFSGGSTYYADSVKGRFTISRDNAKNTVYLQRNSLKPEDTAVYYCAADGEHYPWYYYWGQGTQVTVSS”, the entry is “high polyreactivity”; as for “QVQLVESGGGLVQAGGSLRLSCAASGRTFGHYAMGWYRQAPGKERELVAAITYSGGSTYADSVKGRFTISRDNAKNTVYLQMNSLKPEDTAVYYCNKRQKGYTRSYRYIVWYDYWGQGTQVTVSS”, “high polyreactivity”.
The result for “QVQLVESGGGLVQAGGSLRLSCAASGRTFWYYEMGWYRQAPGKERELVATINNVGSTHYADSVKGRFTISRDNAKNTVYLQMNSLKPEDTAVYYCGRASYGKMDYWGQGTQVTVSS” reads “high polyreactivity”.
The result for “QVQLVESGGGLVQAGGSLRLSCAASGRTFQSNGMGWYRQAPGKERELVAAITWSSGTTYYADSVKGRFTISRDNAKNTVYLQMNSLKPEDTAVYYCAADWGHWNSLFYSGFGYWGQGTQVTVSS” reads “low polyreactivity”; that for “QVQLVDSGGGLVQAGGSLRLSCPASGRIFSWYAMGWYRQAPGKERELVATISSTGGSTYYADSVKGRFTISRDNAKNTVYLQMNSLKAEHTAVYYCNAVVYGIFLYAWYDYWGQGTQVTVSS”, “low polyreactivity”; that for “QVQLVESGGGLVQAGGSLRLSCAASGFTFARYAMGWYRQAPGNERELVAAITRRGGSTYYADSVKGRFTISRDNAKDTVYLQMNSLKPEDTAVYYCAADSSSGSDYWGQGTQVTVSS”, “high polyreactivity”.
For “QVQLVESGGGLVQAGGSLRLSCGASGYIFGYYAMGWYRQAPRKERDLVAAISSSGGSTYYADSVKGRFTISRDHAKNTVYLQMNSLKPEDTAVYYCAAYRWGTHDRLDYWGQGTQVTVSS”, the “polyreactivity (PSR sort gate)” value is recorded as “high polyreactivity”.
In the case of “QVQLVESGGGLVQAGGSLRLSSAASGSIYYPYAMGWYRQAPGKERELVAAIRNGGSTYYADSVKGRFTISRDNAKNTVYLQMNSLKPEETAVYYCNAVYTGPTYGPHRKENYYWGQGTQVTVSS”, the “polyreactivity (PSR sort gate)” value is reported as “high polyreactivity”.
Take “QVQLVESGGGLVQAGGSLRLSCAASGSTFYRYTMGWYRQAPGKEREFVATITGRGGSTYADSVKGRFTISRDNAKNTVYLQMNSLKPEDTAVYYCAKRQTYREYDYWGQGTQVTVSS”: the “polyreactivity (PSR sort gate)” value is listed as “low polyreactivity”.
In the case of “QVQLVESGGGLVQAGGSLRLSCAASGSTFAYNAMGWYRQAPGKERELVATITSGGSTSYADSVKGRFTISRDNAKNTVYLQMNSLKPEDTAVYYCAARKVTKSTYNYWGQGTQVTVSS”, the “polyreactivity (PSR sort gate)” value was “low polyreactivity”.
The result for “QVQLVESGGRLDQAGGSLRLSCAASGSILSTYAMGWYRQPPVKERELVASISSNAGSTYYADSVKGRFTISLDNAKNTVSLQMNSLKPEDTAVYYCNKVYGGGTYDYWGQGTQVTVSS” reads “low polyreactivity”; that for “QVQLVESGGGLVQAGGSLRLSCAASGYIFLPYAMGWYRQARGKEREVVAAIRWSGGSTYYADSVKGRFTISRDNAKNTVYLQMNSLKPEDTAVYYCAAYYVARDRRYPKAYSYEYWGQGTQVTVLS”, “high polyreactivity”.
“QVQLEESGGGLVQAGGSLRLSCAASGITFYYNDMGWYRQAPGKERELVAAISSGGTTNYADSVKGRFTISRDNAKNTFYLAMNSLKPEDTAVYYCATGYAEPEWDPFVSDYDYWGQGTQVTVSS”: the “polyreactivity (PSR sort gate)” value is on record as “low polyreactivity”.
The result for “QVQLVESGGGLVQAGGSLRLSCAASGRTVYKNTMGWYRQAPGKERELVAAISIRGGSTYYADSVKGRFTISRDNAKNTVYLQMNSLKPEDTAVYYCNVVYQKAARIVDFDYWGQGTQVTVSS” reads “high polyreactivity”; that for “QVQLVESGGGLVQAGGSLRLSCAAYGLTFHYYDMGWYRQAPGKERELVAAISAGGVNTYYADSVKGRFTISRDNAKNTVYLQMNSLKPEDTAVYFCAADYYVDVWSYTYGYWGQGTQVTVSS”, “high polyreactivity”; that for “QVQLVESGGGLVQAGGSLRLSCAASGLTFYCYAMGWYRQAPGKERELVAAITSGDSTYYADSVKGRFTISRDNAKNTVYLQMNSLKPEDTAVYYCAAVGGYPRYGYWGQGTQVTVSS”, “high polyreactivity”.
As for “QDQLVESGGGLVQAGGSLRLSCAASGSTFPNNAMGWYREAPGKERELVATITTGGSTYYADSVKGRFTISRDNAKNTVYLQMNSLKPEDTAVYYCAADHLSYRRRYEYWGQGTQVTVSS”, the entry is “low polyreactivity”; as for “QVQLVESGGGLVQAGGSLRLSCAASGSIFYVNAMGWYRQAPGKERELVAAISVRGGRTYYADSVKGRFTISRDNAKNTVYLQMNSLKPEDTAVYYCATRISTVGRYDYWGQGTQVTVSS”, “high polyreactivity”.
As for “QVQLVESGGGLVQAGGSLRLSCAASGSTFDPYGMGWYRQAPGKERELVAAITSSGRTNYADSVKGRFTISRDNAKNTVYFQMNSLKPEDTAVYYCATRKERYFYRCYEYWGQGTQVTVSS”, the “polyreactivity (PSR sort gate)” value is on record as “low polyreactivity”.
For “QVQLVESGGGLVQAGGSLRLSCAASGSTFFANVMGWYRQAPGKEREFVAAINYRTGSTHYSDSVKGRFTISRDNAKNTVYLQMNSLKPEDTAVYYCAVYYQYTDVYQYSGYSVRYDYWGQGTQVTVSS”, the “polyreactivity (PSR sort gate)” value is on record as “low polyreactivity”.
Turning to “QVQLVESGGGLVQAGGSLRLSCAASGRTFVGNAMGWYRQAPGKERELVADITWSGDITYYADSVKGRFTISRDNAKNTVYLQKNSLKPEDTAVYYCAADYHRRRTDYDYWGQGTQVTVSS”, the “polyreactivity (PSR sort gate)” value is on record as “low polyreactivity”.
The result for “QVQLVESGGGLLQAGGSLRLSCAASGRTFTNSAMGWYRQEPGKERELVAGISSSGGRTYYAVSVKGRFTISRDNAMNTVYLQMNSLKAEDTAVYYCAAQHSRVYRRMDYWGQGTQVSVSS” reads “high polyreactivity”; that for “QVQLVESGGGLVQAGGSLRLSCAASGRIFQPYAMGWYRQAPGKERELVAAITRRAGSTYYADSVKGRFTISRDNAKNTVYLQMNSLKPEDTAVYYCAARGLYWAYEMEYWGQGTQVTVSS”, “low polyreactivity”; that for “QVQLVESGGGLVQAGASLRLSCAASGRTFTQYAMGWYRQAPGKERELVAAISRSGGTTYYADSVKGRFTISRENAKNTVYLQMNSLKPEDTAVYYCAARWWYRYNYDYWGQGTQVTVSS”, “high polyreactivity”.
The result for “QVQLVESGGGLFQAGGSLRLSCAASVITFSQYVMGWYRQAPGKERELVAAISYRGGTTYYADSVKGRFTISRDNAKNTVYLQMISLKPEDTAVYYCATLPQRQYSTRDYWGQGTQVTVSA” reads “high polyreactivity”; that for “QVQLVESGGGLVHAGGSLRLSCAASGFTFPGYAMGWYRQAPGKERELVAAISRGGAGTYYADSVKGRFTISRDNAKNTVYLQMHSLKPEDTAFYDCAAATDNPSLFQDMYYWGQGTQLTVSS”, “high polyreactivity”.
The result for “QVQLVESGGGLVQAGGSLRLSCAASGNIFGWYAMGWYRKAPGKERELVAAISSGGRTNYADSVKGRFTISRDYAKNTVYLQMNSLKPEDTAVYYCNKVAGVTGRYYYWGQGTQVTVSS” reads “low polyreactivity”; that for “QVQIVESGAGLVQAGRSLRLSCAASGIIFHRYAMGWYRQAPGKERELVAAITWSGDSTYYADSVKGRFTISRDNAKNTVYLQMNSLKPEDTAVYYFWEYDYWGQGTQVTVSS”, “low polyreactivity”.

(Values after the nanobody polyreactivity screen of Harvey et al. (2022).)
